Columns and labels:
NCp15 (p9 + p6) (HIV-1) = NCp15 (p9 + p6) (HIV-1) (UniProt P12493); assay: fluorescence anisotropy
NCp9 (p7 + SP2) (HIV-1) = NCp9 (p7 + SP2) (HIV-1) (UniProt P12493); assay: fluorescence anisotropy
[1] = biological target: NCp7 (mature nucleocapsid) (HIV-1) (UniProt P12493); assay: fluorescence anisotropy
[2] = biological target: NCp7 (mature nucleocapsid) (HIV-1, UniProt P12493 378-432); assay: fluorescence anisotropy salt titration; Kd extrapolated to 1 M NaCl; Zeff 3.0 ± 0.3; details: protein: recombinant; tags: none (Trx tag removed by TEV); label: 5' FAM; single strand
NCp15 (p9 + p6) = NCp15 (p9 + p6) (HIV-1, UniProt P12493 378-500); assay: fluorescence anisotropy salt titration; Kd extrapolated to 1 M NaCl; Zeff 3.8 ± 0.7; details: protein: recombinant; tags: none (Trx tag removed by TEV); label: 5' FAM; single strand
NCp9 (p7 + SP2) = NCp9 (p7 + SP2) (HIV-1, UniProt P12493 378-448); assay: fluorescence anisotropy salt titration; Kd extrapolated to 1 M NaCl; Zeff 4.3 ± 0.7; details: protein: recombinant; tags: none (Trx tag removed by TEV); label: 5' FAM; single strand

Row | Molecule | Kd (NCp15 (p9 + p6) (HIV-1)) [µM] | Kd (NCp9 (p7 + SP2) (HIV-1)) [µM] | Kd [1] [µM] | Kd [2] [µM] | Kd (NCp15 (p9 + p6)) [µM] | Kd (NCp9 (p7 + SP2)) [µM]
1 | shortPBS RNA (105 nt) | 0.278 | 0.24 | 0.231 |  |  | 
2 | ACTGGACCAAATTCTAATGTGTGTGTACGAAGCATAGCGG (ssDNA) [40-nt ssDNA] |  |  |  | 23 | 78 | 92
